The record followed here is US20090081207A1 (published 2009).

The target in one test is human α5β1 integrin (human, UniProt P08648 42-1049; P05556 21-798). The test can be described thus: cell-based or functional assay.
Test [1] deals with T1, β1-integrin chain on HT29 wt cells (α5-chain negative) (human, UniProt P05556 21-798).
T1 construct: whole, on cells; Negative cell control: β1 present at high density, α5 absent
Put plainly: FACS on HT29 wt cells, labelled secondary antibody. The method, then:
Affinity matured IgG antibodies were incubated at 10 μg/mL with 5×10⁵ HT29 wt and HT29α5 cells. Specifically bound antibodies were detected with a Cy3-labelled secondary antibody. Upper panel: IIA1 incubated with HT29 wt (left) or HT29α5-cells (right), lower panel: IgG1 MOR04974. The fluorescence shift indicates specific binding to α5 integrin and was found for MOR04975, MOR04977, MOR04985 and MOR04624 (grey area). Antibody isotype controls are negative (black lines (b)). Our anti-integrin antibodies bind to α5-chain transfected cells with the same specificity as the reference antibody IIA1.
Affinity matured antibodies of the IgG-format were tested for their binding specificity by FACS analysis on HT29 wt vs. HT29α5 cells. HT29 wt cells are α5-negative but do contain the β1-integrin chain. HT29α5 but not the HT29 wt cells are specifically recognized by the IgG1-anti-integrin antibodies and the reference antibody IIA1 as indicated by the fluorescence shift. (FIG. 12).

Where “and” joins values, the source holds several entries; their conditions need not be identical. Equal values may be shown once.

Sequence of human α5β1 integrin (P08648 42-1049, chain 1 of 2): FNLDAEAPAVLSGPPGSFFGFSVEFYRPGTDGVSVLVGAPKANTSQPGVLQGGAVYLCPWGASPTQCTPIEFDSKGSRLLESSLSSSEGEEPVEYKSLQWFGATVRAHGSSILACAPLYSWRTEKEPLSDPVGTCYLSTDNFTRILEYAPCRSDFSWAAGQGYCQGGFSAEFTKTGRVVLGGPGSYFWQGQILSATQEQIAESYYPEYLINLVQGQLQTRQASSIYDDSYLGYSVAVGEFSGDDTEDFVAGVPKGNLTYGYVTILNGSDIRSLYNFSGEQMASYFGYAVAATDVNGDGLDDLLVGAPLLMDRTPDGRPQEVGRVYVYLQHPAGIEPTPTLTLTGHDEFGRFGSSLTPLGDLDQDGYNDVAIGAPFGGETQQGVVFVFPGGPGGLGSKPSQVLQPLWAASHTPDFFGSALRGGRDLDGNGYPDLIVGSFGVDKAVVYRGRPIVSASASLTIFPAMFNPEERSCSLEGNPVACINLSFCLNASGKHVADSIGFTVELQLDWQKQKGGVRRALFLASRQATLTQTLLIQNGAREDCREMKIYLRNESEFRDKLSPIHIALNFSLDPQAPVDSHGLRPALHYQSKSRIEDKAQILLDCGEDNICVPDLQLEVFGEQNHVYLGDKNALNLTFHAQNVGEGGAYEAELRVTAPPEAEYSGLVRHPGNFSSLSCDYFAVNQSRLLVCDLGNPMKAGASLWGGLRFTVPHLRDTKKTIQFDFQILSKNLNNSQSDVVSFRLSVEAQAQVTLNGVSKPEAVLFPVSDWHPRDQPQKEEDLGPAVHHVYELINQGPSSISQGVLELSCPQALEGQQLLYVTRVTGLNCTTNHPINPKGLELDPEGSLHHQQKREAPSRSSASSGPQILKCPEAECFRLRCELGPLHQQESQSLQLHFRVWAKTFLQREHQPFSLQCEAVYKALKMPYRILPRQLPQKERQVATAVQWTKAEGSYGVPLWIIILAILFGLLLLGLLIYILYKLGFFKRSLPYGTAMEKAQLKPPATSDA
Sequence of human α5β1 integrin (P05556 21-798, chain 2 of 2): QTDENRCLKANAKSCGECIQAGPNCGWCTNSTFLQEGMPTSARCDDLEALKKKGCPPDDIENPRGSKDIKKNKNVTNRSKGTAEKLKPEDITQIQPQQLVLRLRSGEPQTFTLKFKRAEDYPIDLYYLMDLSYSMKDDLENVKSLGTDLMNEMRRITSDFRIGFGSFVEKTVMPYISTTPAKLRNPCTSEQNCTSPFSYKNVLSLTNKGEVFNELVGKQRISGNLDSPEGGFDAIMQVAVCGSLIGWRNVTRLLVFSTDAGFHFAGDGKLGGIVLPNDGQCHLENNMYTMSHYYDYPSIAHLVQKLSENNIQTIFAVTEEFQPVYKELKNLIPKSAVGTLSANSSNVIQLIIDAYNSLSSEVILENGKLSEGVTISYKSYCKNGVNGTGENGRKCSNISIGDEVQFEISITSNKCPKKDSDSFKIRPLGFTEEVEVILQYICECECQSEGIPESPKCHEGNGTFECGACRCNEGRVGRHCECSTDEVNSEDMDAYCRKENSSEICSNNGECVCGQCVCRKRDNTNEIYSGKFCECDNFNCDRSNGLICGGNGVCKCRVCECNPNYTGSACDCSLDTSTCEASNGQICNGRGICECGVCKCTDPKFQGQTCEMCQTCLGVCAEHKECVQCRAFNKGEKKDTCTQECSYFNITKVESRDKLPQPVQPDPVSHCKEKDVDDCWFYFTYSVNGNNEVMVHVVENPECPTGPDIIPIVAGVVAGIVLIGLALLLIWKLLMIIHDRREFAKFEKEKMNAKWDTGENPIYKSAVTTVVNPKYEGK
T1 sequence (P05556 21-798): as the sequence (P05556 21-798, chain 2 of 2) above

B1: MOR04974 IgG1 (antibody, V domains shown)
VH: QVQLVESGGGLVQPGGSLRLSCAASGFTFSSYGMSWVRQAPGKGLEWVSGIRAKQSGYATDYAAPVKGRFTISRDNSKNTLYLQMNSLRAEDTAVYYCARGLGDYGHHHGLSGIFDYWGQGTLVTVSS
VL: DIQMTQSPSSLSASVGDRVTITCRASQGISSNLNWYQQKPGKAPKLLIYAASNLQSGPSRFSGSGSGTDFTLTISSLQPEDFATYYCQQYASPRQTFGQGTKVEIKR
notes: also called IgG1 MOR04974
As to B1, the “EC50, inhibition of HUVEC adhesion to fibronectin” value with human α5β1 integrin was 0.4 µg/ml and 2.7 nM. Moreover, the binding result in test [1] is on record as “no binding (tested: 10 µg/mL)”.
